Patent US20240299570A1 (CELGENE, published 2024)

Biological target: T1, BCMA on BCMA-positive myeloma cell lines (NCI-H929, ARP-1, U266B1) (Homo sapiens (Human), UniProt Q02223 1-184)
T1 sequence: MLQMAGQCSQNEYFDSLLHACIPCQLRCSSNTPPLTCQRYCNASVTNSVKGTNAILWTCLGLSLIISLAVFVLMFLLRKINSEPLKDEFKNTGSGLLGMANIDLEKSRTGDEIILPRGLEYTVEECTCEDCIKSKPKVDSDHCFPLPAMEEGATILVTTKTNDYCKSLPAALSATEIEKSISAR
Assay: cell-based or functional assay

B1: Antibody 2265-F02 (antibody, V domains shown)
VH: EVQLVESGGGLVQPGGSLRLSCAASGFNISAPGIHWVRQAPGKGLEWVGFINPAGGYTDYADSVKGRFTISADTSKNTAYLQMNSLRAEDTAVYYCARDYIRQYWTYVLDYWGQGTLVTVSS
VL: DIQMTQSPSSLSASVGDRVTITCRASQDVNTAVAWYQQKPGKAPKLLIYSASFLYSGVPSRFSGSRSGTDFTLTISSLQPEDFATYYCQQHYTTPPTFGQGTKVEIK
ARP-1, Conjugate M 2° antibody cell killing, EC50: 1.9 nM
U266B1, Conjugate M 2° antibody cell killing, EC50: 0.9 nM
